T1: mouse ASC (mouse, UniProt Q9EPB4 1-193)
T1 construct: recombinant mASC in ELISA and SPR; endogenous ASC of J774.A1 cells in Western blot and immunofluorescence; also called mASC
T1 sequence: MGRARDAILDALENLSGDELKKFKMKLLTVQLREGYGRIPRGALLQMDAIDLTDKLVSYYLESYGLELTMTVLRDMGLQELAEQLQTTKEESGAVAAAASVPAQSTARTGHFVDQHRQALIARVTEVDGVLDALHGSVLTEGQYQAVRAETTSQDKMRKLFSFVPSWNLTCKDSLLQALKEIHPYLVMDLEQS

T2: CARD domain of human ASC (human, UniProt Q9ULZ3 107-195)
T2 construct: biotinylated in BLI; also called hCARD; human CARD
T2 sequence: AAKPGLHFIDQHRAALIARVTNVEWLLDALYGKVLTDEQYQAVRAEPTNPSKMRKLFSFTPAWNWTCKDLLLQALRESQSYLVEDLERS


Assays:
[1] = biological target: T3, human ASC (apoptosis associated speck-like protein containing a caspase-recruitment domain) (human, UniProt Q9ULZ3 1-195); assay: ELISA, coated hASC;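 note: antibody binding to plate-coated recombinant human ASC, read as phosphatase substrate absorbance, EC50 from four-parameter variable-slope fit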
T3 construct: recombinant hASC in ELISA and SPR; endogenous ASC (cytoplasmic or specks) in Western blot and immunofluorescence; also called hASC; PYCARD

PYD domain of human ASC [2] = biological target: T4, PYD domain of human ASC (human, UniProt Q9ULZ3 1-91, limits assumed); assay: ELISA, coated hPYD;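 note: monoclonal antibody binding to plate-coated human ASC PYD measured by ELISA, with a phosphatase substrate absorbance read-out and EC50 from a variable slope curve fit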
T4 construct: biotinylated in BLI; His/MBP-tagged in the alanine ELISA; also called hPYD; human PYD

mouse ASC [3] = biological target: T1, mouse ASC; assay: ELISA, coated mASC
CARD domain of human ASC [4] = biological target: T2, CARD domain of human ASC; assay: ELISA, coated hCARD
[5] = biological target: T3, human ASC (apoptosis associated …); assay: cell-based or functional assay
mouse ASC [6] = biological target: T1, mouse ASC; assay: cell-based or functional assay
[7] = biological target: T3, human ASC (apoptosis associated …); assay: cell-based or functional assay; remark: listed apart in the source
mouse ASC [8] = biological target: T1, mouse ASC; assay: cell-based or functional assay; remark: listed apart in the source
[9] = biological target: T3, human ASC (apoptosis associated …); assay: SPR affinity mode, mAb captured;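 note: Single-cycle SPR kinetics with mAbs captured on goat anti-mouse antibody, double-referenced against blank flow cell and buffer cycle, fitted by a 1:1 kinetic model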
mouse ASC [10] = biological target: T1, mouse ASC; assay: SPR affinity mode, mAb captured;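 note: Single-cycle SPR kinetics with mAbs captured on goat anti-mouse antibody, double-referenced against blank flow cell and buffer cycle, fitted by a 1:1 kinetic model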
PYD domain of human ASC [11] = biological target: T4, PYD domain of human ASC; assay: BLI binning on PYD, competitor 22D3A6-AB1
PYD domain of human ASC [12] = biological target: T4, PYD domain of human ASC; assay: BLI binning on PYD, competitor 23E5F7-AB2
PYD domain of human ASC [13] = biological target: T4, PYD domain of human ASC; assay: BLI binning on PYD, competitor 26A1G2-AB1
PYD domain of human ASC [14] = biological target: T4, PYD domain of human ASC; assay: BLI binning on PYD, competitor 31F10C5-AB1
PYD domain of human ASC [15] = biological target: T4, PYD domain of human ASC; assay: BLI binning on PYD, competitor 401H9B7-AB1
PYD domain of human ASC [16] = biological target: T4, PYD domain of human ASC; assay: BLI binning on PYD, competitor 416E6G4-AB1
PYD domain of human ASC [17] = biological target: T4, PYD domain of human ASC; assay: BLI binning on PYD, competitor 2610H7D3-AB1
PYD domain of human ASC [18] = biological target: T4, PYD domain of human ASC; assay: BLI binning on PYD, competitor 2617C3A8-AB1
PYD domain of human ASC [19] = biological target: T4, PYD domain of human ASC; assay: BLI binning on PYD, competitor 2626B9D3-AB1
mouse ASC [20] = biological target: T1, mouse ASC; assay: ELISA, coated mASC; ELISA on mASC protein
mouse ASC [21] = biological target: T1, mouse ASC; assay: SPR affinity mode, steady-state fit, apparent KD; SPR affinity mode, mAb captured, mASC in solution; steady-state fit, apparent KD
CARD domain of human ASC [22] = biological target: T2, CARD domain of human ASC; assay: BLI binning on CARD, competitor 32B6C7-Ab1
CARD domain of human ASC [23] = biological target: T2, CARD domain of human ASC; assay: BLI binning on CARD, competitor 18F4C12-Ab1
CARD domain of human ASC [24] = biological target: T2, CARD domain of human ASC; assay: BLI binning on CARD, competitor 2504F3D9-Ab1
CARD domain of human ASC [25] = biological target: T2, CARD domain of human ASC; assay: BLI binning on CARD, competitor 2609F4A9-Ab1
CARD domain of human ASC [26] = biological target: T2, CARD domain of human ASC; assay: BLI binning on CARD, competitor 2629E8D1-Ab1
CARD domain of human ASC [27] = biological target: T2, CARD domain of human ASC; assay: BLI binning on CARD, competitor 2622E12F11-Ab1
[28] = biological target: T3, human ASC (apoptosis associated …); assay: SPR avidity mode, ASC immobilized;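 note: Single-cycle SPR kinetics on Biacore T200, antibodies injected at 1.2–100 nM (3-fold steps), 300 s association, 900 s dissociation, double-referenced, 1:1 kinetic model fit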

T4 sequence (Q9ULZ3 1-91 limits assumed): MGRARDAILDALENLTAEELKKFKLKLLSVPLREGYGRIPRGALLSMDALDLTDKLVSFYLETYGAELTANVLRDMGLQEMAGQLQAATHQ

| EC50 [1] [nM] | Human ASC polymerization assay, IC50 [5] [nM] | IL-1β release, human monocytic cell line, IC50 [7] [nM] | % IL-1β inhibition, mouse primary microglia, 420 nM mAb (mouse ASC [8]) [%] | Kd [9] [nM] | koff [9] [s⁻¹] | kon [9] [M⁻¹ s⁻¹] | EC50 (mouse ASC [20]) [nM] | Kd (mouse ASC [21]) [nM] | binding result (PYD domain of human ASC [2]) | EC50 (CARD domain of human ASC [4]) [nM] | normalized binding response (CARD domain of human ASC [22]) [%] | normalized binding response (CARD domain of human ASC [23]) [%] | normalized binding response (CARD domain of human ASC [24]) [%] | normalized binding response (CARD domain of human ASC [25]) [%] | normalized binding response (CARD domain of human ASC [26]) [%] | normalized binding response (CARD domain of human ASC [27]) [%] | also measured | Binder |
| --- | --- | --- | --- | --- | --- | --- | --- | --- | --- | --- | --- | --- | --- | --- | --- | --- | --- | --- |
| 0.24 | 6.3 | 33 | 90.5 | 0.16 | 0.000199 | 1.23e+06 | – | – | – | – | – | – | – | – | – | – | EC50 (PYD domain of human ASC [2]): 0.18 nM; EC50 (mouse ASC [3]): 0.3 nM; binding result (CARD domain of human ASC [4]): no binding; Mouse ASC polymerization assay, IC50 (mouse ASC [6]): 34.8 nM; Kd (mouse ASC [10]): 0.36 nM; koff (mouse ASC [10]): 0.000314 s⁻¹; kon (mouse ASC [10]): 886000 M⁻¹ s⁻¹; normalized binding response (PYD domain of human ASC [11]): 3%; normalized binding response (PYD domain of human ASC [12]): 2%; normalized binding response (PYD domain of human ASC [13]): 0%; normalized binding response (PYD domain of human ASC [14]): 1%; normalized binding response (PYD domain of human ASC [15]): 79%; normalized binding response (PYD domain of human ASC [16]): 4%; normalized binding response (PYD domain of human ASC [17]): 2%; normalized binding response (PYD domain of human ASC [18]): 3%; normalized binding response (PYD domain of human ASC [19]): 49% | ACI-8016-31F10C5-AB1 (antibody, V domains shown, also called 936.31F10C5) VH: QVQLQQSEPELARPGASVKLSCTASGYTFINYGVSWVRQRTGQGLEWIGRIYPRSGNTRFNEKFQGKATLTADTSSSTAYMELRSLTSEDSAVYFCTRFPYAFSGNSYWYFDVWGTGTTVTVSS VL: DIVMTQSHKFMSTSIGDRVSITCKASQDVSAAVAWYQQKPGQSPKLLIYSSSFRYTGVPDRFTGSASGTDFTFTITTVQAEDLAVYYCQQHFDTPYTFGGGTKLEIK |
| – | – | – | 52 | – | – | – | 0.38 | 34.4 | – | – | – | – | – | – | – | – | Mouse ASC polymerization assay, IC50 (mouse ASC [6]): 27.3 nM | ACI-8016-2626B9D3-AB1 (antibody, V domains shown) VH: QVQLQQPGTELVKPGASVKLSCRASGWTHWVKQRPGQGLEWIGNINLSNGRTNYNEKFRAMATLTVDKSSSTAYTQLSSLTSEDSAVYYCANSMVPHFFPMDYWGQGTSVTVSS VL: NIVMTQYPKSMSLSIGERVTLRCKASENVGSYVSWYQQKPEQSPKLLIYGASNRYTGVPDRFTGSGSATDFILTITSVQAEDLADYHCGQSYNYPLTFGAGTKLELK |
| 0.19 | – | 16.7 | – | 8.3 | 0.000723 | 89300 | – | – | no binding | 0.13 | 21 | 76 | 0 | 17 | 20 | 19 | – | ACI-8016-2504F3D9-AB1 (antibody, V domains shown) VH: DVKLVESGEGLVKPGGSLKLSCAVSGFTFSNYAMSWVRQTPEKRLEWVAYISSGGDFIYYRDTVKGRFTISRDNARNTLYLQMSSLKSEDTAMYYCILQLRPEAWFAYWGQGTLVTVSA VL: DIKMTQSPSSMYASLGERVTITCKASQDIKNYLSWFQQIPGKSPKTLIYRANRLVDGVPSRFSGSGSGQDYSLTISSLEYEDMGIYYCLQYYEFPYTFGGGTKLEIK |
| 0.11 | 19.4 | 30.8 | 95.9 | 3.66 | 0.000786 | 235000 | 0.16 | 176 | no binding | 0.12 | 91 | 18 | -2 | 74 | 87 | 0 | – | ACI-8016-2622E12F11-AB1 (antibody, V domains shown) VH: RVQLQQAGAELVKPGASVKVSCKASGNTFNNYWIYWVKQRPGQGLEWIGRIHPSDSGTNYNQKFEGKATLTVDKSSGTAYMQLSSLTAEDSAVYYCALLSLYAMDSWGHGTSVTVSS VL: DIVLTQSPASLAVSLGQRATISCRASKSVSSFGYNYIHWYLQKPGQPPKLLIYLASDLESGVPARFSGSGSGTGFTLNIHPVEEEDAATYYCQHSREFPWTFGGGTKLEIK |
| 0.09 | – | – | – | 1.34 | 0.00017 | 130000 | – | – | – | – | – | – | – | – | – | – | EC50 (PYD domain of human ASC [2]): 0.08 nM; binding result (mouse ASC [3]): no binding; binding result (CARD domain of human ASC [4]): no binding; Kd [28]: 0.35 nM; koff [28]: 2.9e-05 s⁻¹; kon [28]: 83000 M⁻¹ s⁻¹ | ACI-8016-203G8B10-AB1 (antibody, V domains shown) VH: EVKLEESGGGLVHPGGSMKLSCVASGFTFSNYWMNWVRQSPEKGLEWVAQIRLKSENYATHSAESVKGRLTISRDDSKSSVYLQMNNLRAEDTGIYYCLAGWGLDYWGQGTTLTVSS VL: DIVMTQAAFSNPVTLGTSASISCRSSKTLLHSDGFTYLYWYLQRPGQSPQLLIHRVSNLASGVPNRFSGSESGTDFTLRISRVEPEDVGVYYCAQMLELPLTFGSGTKLELK |
| 0.06 | – | – | – | 0.55 | 0.00019 | 360000 | – | – | no binding | 0.06 | – | – | – | – | – | – | binding result (mouse ASC [3]): no binding; Kd [28]: 10.5 nM | ACI-8016-402H11C9-Ab1 (antibody, V domains shown) VH: QVQLQQSGAELARPGASVKMSCKASGYTFTTYTMHWVKQRPGQGLEWIGYINPSSGYTYYNQNFKDKATLTADKSSSTAYMQLSNLASDDSAVYYCALGGNPAWFAYWGQGTLVTVSA VL: DIVLTQSPATLSVTPGDSVSLSCRASQSIGNNLHWYQHKSHESPRLLIKYASQSISGIPSRFSGSESGTDFTLSINSVETEDFGIYFCQQSKSWPWTFGGGTKLEIK |
| 0.12 | 32.8 | 16.2 | 82.3 | 24.9 | 0.00783 | 297000 | 0.3 | 168 | no binding | 0.11 | 7 | 96 | 0 | 0 | 0 | 103 | – | ACI-8016-2609F4A9-AB1 (antibody, V domains shown) VH: QVQLQQSDAELVKPGASVKISCKVSGYALTDHSIHWMKQRPEQGLAWIGYMYPGDGSANYNDKFRGKATLTADISSSTAYMHLNSLTSEDSAVYFCTRPYSFGSSYDYFGYWGQGTTLTVSS VL: DIQMNQSPSSLSASLGDTITITCHASQNINVWLNWYQQKPGNIPKLLIYKASKLHTGVSSSFSGSGSGTGFTLTISSLQPEDIGTYYCQQGQSYPYTFGGGTKLEIK |

— patent US20250320284A1 (AC IMMUNE, published 2025)
